The text below walks through data of US20250242041A1 (Seagen, published 2025).

Substitutions are numbered along the chain they refer to.

Sequences and labels used below:
T1: human αvβ6 on 293F:huβ6 cells (human, UniProt P06756 31-1048; P18564 22-788)
T1 chain 1: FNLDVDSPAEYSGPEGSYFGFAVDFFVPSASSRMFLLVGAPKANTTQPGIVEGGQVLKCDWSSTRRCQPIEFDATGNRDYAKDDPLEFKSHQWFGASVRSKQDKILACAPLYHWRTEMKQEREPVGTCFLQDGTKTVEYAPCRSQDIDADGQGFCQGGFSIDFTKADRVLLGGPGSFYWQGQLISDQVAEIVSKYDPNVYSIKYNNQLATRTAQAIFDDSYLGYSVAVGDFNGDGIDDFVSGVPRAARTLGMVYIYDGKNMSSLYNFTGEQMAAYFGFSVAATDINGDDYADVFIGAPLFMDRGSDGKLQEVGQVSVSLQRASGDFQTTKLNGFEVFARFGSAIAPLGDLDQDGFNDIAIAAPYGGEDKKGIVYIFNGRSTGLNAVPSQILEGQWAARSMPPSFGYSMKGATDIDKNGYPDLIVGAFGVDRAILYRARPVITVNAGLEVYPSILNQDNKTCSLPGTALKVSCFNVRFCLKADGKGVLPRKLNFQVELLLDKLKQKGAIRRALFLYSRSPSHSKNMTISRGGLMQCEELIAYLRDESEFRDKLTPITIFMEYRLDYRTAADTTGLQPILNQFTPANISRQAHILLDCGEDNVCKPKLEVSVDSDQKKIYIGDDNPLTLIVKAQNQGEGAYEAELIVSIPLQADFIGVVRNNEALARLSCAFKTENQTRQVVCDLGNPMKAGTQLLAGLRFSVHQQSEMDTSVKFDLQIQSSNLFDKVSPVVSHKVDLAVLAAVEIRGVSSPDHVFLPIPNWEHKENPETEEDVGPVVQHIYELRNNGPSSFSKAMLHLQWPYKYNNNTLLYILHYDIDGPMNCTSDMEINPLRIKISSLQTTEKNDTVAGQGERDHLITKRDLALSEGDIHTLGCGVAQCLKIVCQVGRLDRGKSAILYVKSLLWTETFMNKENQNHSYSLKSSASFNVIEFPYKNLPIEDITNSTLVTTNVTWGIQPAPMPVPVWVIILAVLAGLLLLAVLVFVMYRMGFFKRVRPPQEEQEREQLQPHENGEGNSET
T1 chain 2: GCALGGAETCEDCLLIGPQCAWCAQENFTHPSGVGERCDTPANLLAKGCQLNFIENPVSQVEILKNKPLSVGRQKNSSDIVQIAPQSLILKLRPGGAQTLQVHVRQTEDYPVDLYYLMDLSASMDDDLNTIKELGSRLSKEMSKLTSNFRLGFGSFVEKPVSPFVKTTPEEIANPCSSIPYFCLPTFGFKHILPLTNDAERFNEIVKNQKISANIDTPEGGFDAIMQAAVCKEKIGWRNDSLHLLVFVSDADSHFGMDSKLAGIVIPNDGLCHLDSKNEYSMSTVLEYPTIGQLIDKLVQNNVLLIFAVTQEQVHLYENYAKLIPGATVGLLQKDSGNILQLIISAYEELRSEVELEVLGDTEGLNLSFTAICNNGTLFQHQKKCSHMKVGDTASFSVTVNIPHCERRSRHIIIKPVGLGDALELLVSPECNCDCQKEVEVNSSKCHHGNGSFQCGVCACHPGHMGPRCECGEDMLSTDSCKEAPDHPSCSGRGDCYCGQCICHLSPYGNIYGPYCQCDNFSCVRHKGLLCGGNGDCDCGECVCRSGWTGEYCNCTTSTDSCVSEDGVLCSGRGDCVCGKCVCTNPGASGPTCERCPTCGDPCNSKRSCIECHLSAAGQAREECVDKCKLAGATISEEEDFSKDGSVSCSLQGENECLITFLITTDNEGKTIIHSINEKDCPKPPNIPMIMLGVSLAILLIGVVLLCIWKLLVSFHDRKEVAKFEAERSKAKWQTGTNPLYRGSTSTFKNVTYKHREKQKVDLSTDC

B1: h2A2 HALA (antibody, V domains shown)
VH: QFQLVQSGAEVKKPGASVKVSCKASGYSFTDYNVNWVRQAPGQGLEWMGVINPKYGTTRYNQKFKGRVTMTRDTSTSTVYMELSSLRSEDTAVYYCTRGLNAWDYWGQGTLVTVSS
VL: DIQMTQSPSSLSASVGDRVTITCGASENIYGALNWYQQKPGKAPKLLIYGATNLADGVPSRFSGSGSGTDFTFTISSLQPEDIATYYCQNVLTTPYTFGQGTKLEIKR
B2: h2A2 HCLB (antibody, V domains shown)
VH: B1 VH with M48I, V68A, M70L, R72V, T74K, V79A
VL: B1 VL with T69R, F71Y
B3: h2A2 HBLB (antibody, V domains shown)
VH: B1 VH with S75P
VL: B1 VL with T69R, F71Y
B4: h2A2 HDLB (antibody, V domains shown)
VH: B1 VH with M48I, V68A, M70L, R72V, T74K, S75P, V79A
VL: B1 VL with T69R, F71Y
B5: h2A2 HBLA (antibody, V domains shown)
VH: B1 VH with S75P
VL: B1 VL
B6: h2A2 HDLA (antibody, V domains shown)
VH: B1 VH with M48I, V68A, M70L, R72V, T74K, S75P, V79A
VL: B1 VL
B7: h2A2 HCLA (antibody, V domains shown)
VH: B1 VH with M48I, V68A, M70L, R72V, T74K, V79A
VL: B1 VL
B8: h2A2 HALB (antibody, V domains shown)
VH: B1 VH
VL: B1 VL with T69R, F71Y
B9: c2A2 (antibody, V domains shown)
VH: EFQLQQSGPELVKPGASVKISCKASGYSFTDYNVNWVKQSNGKSLEWIGVINPKYGTTRYNQKFKGKATLTVDKPSSTAYMQLNSLTSEDSAVYYCTRGLNAWDYWGQGASVTVSS
VL: DIQMTQSPASLSASVGETVTITCGASENIYGALNWYQRKQGKSPQLLIYGATNLADGMSSRFSGSGSGRQYSFKISSLHPDDVATYYCQNVLTTPYTFGGGTKLEIK
B10: h2A2 HALC (antibody, V domains shown)
VH: B1 VH
VL: B1 VL with D56T, T69R, F71Y
B11: h2A2 HCLF (antibody, V domains shown)
VH: B1 VH with M48I, V68A, M70L, R72V, T74K, V79A
VL: B1 VL with G24Q, D56T, F71Y
B12: h2A2 HALG (antibody, V domains shown)
VH: B1 VH
VL: B1 VL with A55E, T69R, F71Y
B13: h2A2 HCLD (antibody, V domains shown)
VH: B1 VH with M48I, V68A, M70L, R72V, T74K, V79A
VL: B1 VL with F71Y
B14: h2A2 HALF (antibody, V domains shown)
VH: B1 VH
VL: B1 VL with G24Q, D56T, F71Y
B15: h2A2 HALH (antibody, V domains shown)
VH: B1 VH
VL: B1 VL with T69R
B16: h2A2 HALE (antibody, V domains shown)
VH: B1 VH
VL: B1 VL with G24Q, T69R, F71Y
B17: h2A2 HCLC (antibody, V domains shown)
VH: B1 VH with M48I, V68A, M70L, R72V, T74K, V79A
VL: B1 VL with D56T, T69R, F71Y
B18: h2A2 HCLH (antibody, V domains shown)
VH: B1 VH with M48I, V68A, M70L, R72V, T74K, V79A
VL: B1 VL with T69R
B19: h2A2 HALD (antibody, V domains shown)
VH: B1 VH
VL: B1 VL with F71Y
B20: h2A2 HCLE (antibody, V domains shown)
VH: B1 VH with M48I, V68A, M70L, R72V, T74K, V79A
VL: B1 VL with G24Q, T69R, F71Y

One assay addresses T1, human αvβ6 on 293F:huβ6 cells. The assay is described as follows: competition binding on 293F cells; 2nM m2A2-AF647 competitor.
Turning to B1, the EC50 is 74 nM.
Take B2: a half-maximal effect (EC50) was put at 3 nM.
Still for that read-out and setting: with B3 the figure was 9 nM; with B4, 6 nM.
B5 returned an EC50 of 85 nM.
B6 gave an EC50 of 147 nM.
B7: the midpoint of the response, the EC50, lay at 74 nM.
Still for that read-out and setting: under B8 stands 5 nM.
In turn, B9 yielded an EC50 of 4 nM.

Another assay has the same target. Described as above. This is another data set of the same source.
For B10, a half-maximal response (EC50) required 9 nM.
The molecule B2 yielded an EC50 of 3 nM.
Same read-out and setting: with B11 the figure was 6 nM; with B12, 1 nM.
In turn, B8 had an EC50 of 8 nM.
Same read-out and setting: with B13 the figure was 5 nM; with B14, 14 nM.
As to B15, the EC50 amounted to 46 nM.
Still for that read-out and setting: with B16 the figure was 5 nM.
The same measure, in the same setting: under B17 stands 3 nM; under B18, 30 nM.
On the same count and under the same terms, with B19 the figure was 12 nM; with B20, 3 nM.
B9 gave an EC50 of 3 nM.

Another assay has the same target. Described as above. The source holds these as a separate data set.
For the molecule B12, the concentration giving a half-maximal response (EC50) came to 1 nM.
B18 displayed an EC50 of 46 nM.
Turning to B20, it took 2 nM to reach a half-maximal effect (EC50).
